From paper PMC7229824 (Nucleic Acids Research, 2020)

Biological target: GST-PCAF (human, UniProt Q92831 1-832)
Experiment: pull-down

Chain of GST-PCAF (Q92831 whole entry): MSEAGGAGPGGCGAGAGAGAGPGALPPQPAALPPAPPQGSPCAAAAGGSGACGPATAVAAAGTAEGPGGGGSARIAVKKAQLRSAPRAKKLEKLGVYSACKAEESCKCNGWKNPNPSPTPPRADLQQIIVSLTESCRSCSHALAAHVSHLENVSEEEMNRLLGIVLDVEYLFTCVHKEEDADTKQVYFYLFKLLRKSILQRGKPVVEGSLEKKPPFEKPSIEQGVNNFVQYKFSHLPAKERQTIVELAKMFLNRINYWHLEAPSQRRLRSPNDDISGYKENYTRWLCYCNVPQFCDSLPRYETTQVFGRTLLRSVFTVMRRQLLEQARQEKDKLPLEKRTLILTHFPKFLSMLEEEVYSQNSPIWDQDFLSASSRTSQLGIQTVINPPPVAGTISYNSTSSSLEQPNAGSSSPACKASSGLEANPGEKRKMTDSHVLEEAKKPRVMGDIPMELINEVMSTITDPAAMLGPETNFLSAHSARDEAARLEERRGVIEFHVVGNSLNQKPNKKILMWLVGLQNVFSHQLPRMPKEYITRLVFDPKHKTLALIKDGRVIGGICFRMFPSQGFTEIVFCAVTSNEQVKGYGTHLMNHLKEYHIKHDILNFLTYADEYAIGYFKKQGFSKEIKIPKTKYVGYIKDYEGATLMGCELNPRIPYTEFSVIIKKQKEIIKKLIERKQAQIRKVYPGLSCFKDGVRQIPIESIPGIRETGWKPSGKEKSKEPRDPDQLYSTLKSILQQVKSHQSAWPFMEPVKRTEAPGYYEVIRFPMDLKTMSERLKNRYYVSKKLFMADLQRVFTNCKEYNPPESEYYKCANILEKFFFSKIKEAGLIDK

- binding result: binds
B1: His-HMGA2 (natural protein)
chain: MSARGEGAGQPSTSAQGQPAAPAPQKRGRGRPRKQQQEPTGEPSPKRPRGRPKGSKNKSPSKAAQKKAEATGEKRPRGRPRKWPQQVVQKKPAQEETEETSSQESAEED
